# Test: soluble on expression in E. coli; label from the status in PepcDB or PDB records
row,Sequence,soluble on expression in E. coli
1,MGSDKIHHHHHHMTNKVVNNDKISSVGIIGCGWLGSALAYQLKNQDIAVLATRSNIDNIEQLKSQGIEAEVLSLPAEQAQLNTHPIFKQQCLVIAITPQFRQGRVDYADKVQQLVESAKVGNCVEQIILLSSSAIYNGLSGDVEENSILDMSADKVSVLNQAEQAVLSFNHPGRNESRLNALNAEVGNKKAYVLRLSGLVGPKRHPGKFLLNGHMLKSPQAIVNLIHQQDAVGLIQTLLQSANCGGIFNGVSSTKVTKKQYYQAAASALQLPTPTFEEIELSEDNAPKVVSGKKTQAELAYEFVYDDLLAWLELAV,not soluble
2,MGSDKIHHHHHHMAVKRAYYGNDGDRDYFERVFQSANINFLIGSGASLPAINVLGTIENDLQQLINDEKEDEYFNMAAGFLSAVWLPHEYILDRGNDVAFPPPVISNVDYTRKNYDAFISSLEKILTRRRTGLLPRRINVFTTNYDLFIEEAATRNNNILFNDGFNKRMNVWGDEEFDAGSFNYSVSATGNLYNYKVELPTVNLIKLHGSFSWKHYKGRIIYNIGEKKPLNFATPAEMKKWVLAHALILPRKEKFKETLLQNVYYDLLRTYSNELDKEATLLVVFGFSFADEHLEMLTKKALRNATLKLLIFAFNEASVGGFMENFRDYSNVEIIYRPGGNVDFPVMNNIITCYLGGAR,not soluble
3,MKVSKIYTTIDAHVAGEPLRIITGGVPEIKGETQLERRAYCMEHLDYLREILMYEPRGHHGMYGCIITPPASAHADFGVLFMHNEGWSTMCGHGIIAVITVGIETGMFEVTGEKQKFIIDSPAGEVIAYATYSGSEVESVSFENVPSFVYKKDVPIKIDSYEFQVDIAFGGAFYAVVDSKEFGLKVDFKDLSAIQMWGGKIKHYIESKMEVKHPLEEGLKGIYGVIFSDDPKEKDATLRNVTIFADGQVDRSPCGTGTSARIATLFAKDALQKGEIFVHECITDGKFEGEVLSVTAVHTYEAVVPKVTGNAFITGFHQFVVDPRDDLNRGFLLGLEHHHHHH,not soluble
4,MADLERYLKRARGGRVVRTGFLDPEDQARLEEMARREGIRVAFFGGFPLAERKVAVLYPEEVPSVSDPVEVVLLDRPPPADLGEVLGEVEEVEEGVLAALLPEGRKALEAQGYRLLPPPEGALRPPRERVRTLVVPSLRVDAVGAKGFGVSRSYFAQGVKAGKVRLKGRPASPKDELAPGDLLFAEGLGTLRLLEVVGKTVRGNYKIKVEVER,soluble
5,MNLSNHFLIAMPDMEDAFFSQSVVYICKHDEDGALGIAINKPSPITMDMIFSATGKNIPMRMQHDSVMMGGPVQVERGYVVHTPIGNWQSSIGVSDNIALTSSRDVIENISREGAVDKALISIGYSSWSKGQLERELADNAWLTVPADEHILFDIPYEHRYAAAFAKLGIDPLALFSGAGHA,not soluble
6,MEVRGMDTIGHHYIVEAAGCDPNVIGDANKIREIFLEAAKRGNMEVKASYFFKFSPMGVSGVVIVAESHISVHTWPEKGYAALDVYTCGENADPEKAVDYILEQFKAQYAHVSEIKRGIEEEDRTFTHTILTWEERLDRRNGKP,soluble
7,MGSDKIHHHHHHVSYPANRTPDHLLESDRAAGFEISADFERFDQRNDIFTRAFWDERVKSKDTDAFFASYRMEAAPRRGDGFTQKDFALRNAAWLISDIVSERSAEEGLREGFQGAIRDDTPVAPDKADLGAPEAEAAEMKAVAKLFGADLVGITHFDARWHYSARPDVRTMEAVPNDLPEGLGQVIVMGHAMDADLVETYPSALAGAATGREYSHEAAIVMQVAAYVRNLGYRAVASMNDTALVIPYAIKAGLGEYGRNQMVLTPEFGPRVRFSKIFTDMPLAVDAPRAFGLKAYCEGCDVCAVACPVKALPFGAPEFGGKAPSALRGVKKWTSDAEACFGYWAKLRSDCAICMRVCPFTAPRAGWVDRLWYKLAVGVFGDTGRGIARKWAARRAKARVKPKDWWAALRS,not soluble
8,MAHHHHHHMNIKRSIYHYLSYSSFLIKNHYHHNNTIYPCFHSLRNNNKMSYFRPNYFICIPIKNDNICNELINIQKHVLVKYDELKDCIIERNKFHISLLILHIKKNQIELSKEAFNEAMEKIKKNMHNEKICFEKLDTFRNDVLYLSLKEDSNKYIINIINHLIDSFSKRGIKIIFNNKKPAKEILSNNNKKELNKNSNDLQHITPHLTLMKNSYMKKMYMNKKPQILPFFYTDYDLTNLLKEQIDIQKIQFLEMDMDTSTSYYKIVSEFNL,not soluble
9,MSLSVEFNKQQVRPRSEISPQDCWDITPLYLNRKAWKADLDSFGLKTDGSPTWPALQATQYQLDNSESLLSLLTTLFSIERKLNKLYVYAHLTHDQDITNQEGIADLKSITHLHTLFAEETSWVQPALTSLSESLIAQHLSAPCLAPYRFYLEKIFRLSIHTGTPGEEKILASAFTPLEVASKAFSSLSDSEIPFGQATDSEGNSHPLSHALASLYMQSTDRELRKTSYLAQCERYHSYRHTFANLLNGKIQAHVFYAKNKRYNSCLQAALYHNNIPTTVYTNLIDIVKKNSSLITKYFSIKQRCLNLKDFHFYDVYAPLSQSKEKKYTFQEAVDLIYTSLSPLGTEYIDTLKQGLTTQGWVDKYENLNKRSGAYSSGCYDSHPYVLLNYTGTLYDVSVIAHEGGHSMHSYFSRKHQPFHDAQYPIFLAEIASTLNEMLLMDSMLKESDSKEEKITILTRCLDTIFSTLFRQVLFASFEYDIHHAAEHGVPLTEEYLSSTYKNLQNEFYGEIITFDVLSNIEWARIPHFYYNFYVYQYATGIIAALCFLEKILNNEDNALNSYLNFLKSGGSDFPLEILKKSGLDMGTVEPIQKAFCFIEKKIQELSSLIEGHHHHHH,soluble
10,MAVTREDLEQNRLRAALGDSPVASTLLTEAALEASLASTLARLSAAPCEGQDAWVFGYGSLIWNPMIFHTEVARATVRGYHRGFYLYSRINRGTWDNPGLVLGLDRGGSCSGVAFRVPRAHAEREFRVLWRREMLTGAYLPRWLPTEIHGERILALAFVMNRTHEAYAGRLPDERVVGCLHKAVGLYGPAREYLQRTLIGLASNGLHDPYLDRLWQRLQAMDINAANAPSQTADTDGTGPLPDPYLSALEHHHHHH,not soluble
11,ASNFTQFVLVDNGGTGDVTVAPSNFANGVAEWISSNSRSQAYKVTCSVRQSSAQNRKYTIKVEVPKVATQTVGGVELPVAAWRSYLNMELTIPIFATNSDCELIVKAMQGLLKDGNPIPSAIAANSGIYANFTQFVLVDNGGTGDVTVAPSNFANGVAEWISSNSRSQAYKVTCSVRQSSAQNRKYTIKVEVPKVATQTVGGVELPVAAWRSYLNMELTIPIFATNSDCELIVKAMQGLLKDGNPIPSAIAANSGIY,soluble
12,MGSRENLYFQGLEHHHHHHHMGHETKAQLKDYVEVKIMKIKTTVAALSVLSVLSFGAFAADSIDAAQAQNREAIGTVSVSGVASSPMDMREMLNKKAEEKGATAYQITEARSGDTWHATAELYK,soluble
13,MNTASLVRSLSRVALRSSQVVRMAAPRHFSQSAKVLSVTPELQQALNREIEAEQQLSSDNLQGAVAPTFAGFQVTNKDAEVRLTKKNGSEDILVVFNVNHSVDMDEGFDDEPSQAVAPVPVAMPPFTVEITKGDQRLCFHLELVPVDDQPDEYDFRVEEFYVAPSAKNGNEDVPSEVYASSGKYIDPDLHDLLFVRYLEERGLDARFCKTLVAYATHYEHSQYVGLLDKIKKFISK,not soluble
14,MGSDKIHHHHHHMKLLCSLASPYARCVRSLIRYLGIEDIEEVLVNPMENTAQLLDVNPLGQIPCLITNDGVPIFDSEVIMRYLDTELGAQEMFGGQPYNWVLQCQYSMIKGLIDSAVKLRQEQMREEEGVRSAFWTSRFEQALLRGLMQMEHQSVITQTTIQAPQLTLICLLDYVDFRHPELDWRKVAPATAIWFSEMRDLPAFVETRPQ,not soluble
15,MTNLTLDVNIIDFPSIPVAMLPHRCSPELLNYSVAKFIMWRKETGLSPVNQSQTFGVAWDAPATTAPEAFRFDICGSVSEPIPDNRYGVSNGELTGGRYAVARHVGELDDISHTIWGIIRHWLPASGEKMRKAPILFHYTNLAEGVTEQRLETDVYVPLA,not soluble
16,MRKIKLIAVVGPTAVGKTALGIELAKTFNGEIISGDSQQVYQKLDIGTAKASKEEQEQAYHHLIDVREVNENYSVYDFVKEAKVAIDTIISKGKIPIIVGGTGLYLQSLFEGYHLGGEVNQETLMAYREKLESLSDEDLFEKLTEQSIIIPQVNRRRAIRALELAKFGNDLQNSESPYDVLLIGLNDDRQVLYDRINRRVDLMMDNGLLDEAKWLYDNYPSVQASKGIGYKELFPYFSKQIPLEEAVDKLKQNTRRFAKRQLTWFRNRMNVEFIMVGEENYQQKIKRKVSDFLSSKLEHHHHHH,soluble
17,MGSDKIHHHHHHMGCEIDRDASGLHSLQGLAGRDVSVAAGAKVGWSFMGTGTIATELVVEAIRSVGHSPLWVVSRSKRDADHFAEDLGIPHSTTELGPVLQDPSVGFAYISASLKRRPHYITAAAGAGKHILCDGPISCTSKTASALVELCRGARASLVVNQRLRASTIHQTMRRLVRDGDIGAVQSIVLIRGGPYQAPPNRSARDFNDGSGIYLDVSVENIDLARFLTGAEPVEATALITSEKMVPSQATYILRLSDGSLFQAHESFRTADIESMVLVAGDRGALIAQGTLNGRTSGTLMRRADGRNEAVPVRDHDVHLATVREFANTRGQTPSWLSQGTDSVIALRTVEAVAMSAKKRRTVPIQG,not soluble
18,MGSDKIHHHHHHMEIKKFIENYREAFGEYAELPIVFWYSDILENETGKVNGCFFKSMSKVRGGNTISLNAETIGCGGGKFYTGFTDMPEHVPTFVSLKERYKQTPEMVKSFIEQLGVPRAEKEYLHFARIDKVETFDHLEGILFLANPDILSGLTTWAFFDNNKEDTVISTFGSGCSSVVTQTILENRKGGYRTFIGFFDPSVRPYFEADILSYTIPMSRFKVMYETMRSSCLFDTHAWGKIRERNHNSYKE,not soluble
19,MSAKLISVTKPVVEGVNTAEELIAYAARVSNPENQINNKTASGLLKYCIRHKHWSIFETAFMTLELKTSRGIAAQVIRHRSFHFQEFSQRYASVMETPPPHQARFQDHKNRQNSLDTVPEDDQTWWATEQEKLYAQSMELYNKALEKGIAKECARFILPLSTPTTIYMSGTIRDWIHYIELRTSNGTQREHIDLANACKEIFIKEFPSIAKALDWVH,soluble
20,VVKQDLSDNQYIQKKPNEITSNELLLPLPNDKLLGDPKAPILMIEYASLTCYHCSLFHRNVFPKIKEKYIDTGKMLYIFRHFPLDYRGLKAAMLSHCYEKQEDYFNFNKAVFNSIDSWNYYNLSDLTLLQRIAALSNLKQDAFNQCINDKKIMDKIVNDKSLAINKLGITAVPIFFIKLNDDKSYIEHNKVKHGGYKELKYFTNVIDKLYGKAIVKLEHHHHHHHH,soluble
